From publication PMC3282170 (Febs Letters, 2012)

Legend:
[1] = biological target: Human γD-crystallin I4F/V76D, bimane-labeled at cysteine 111 (human) (UniProt P07320); experiment: fluorescence polarisation
[2] = biological target: T1, triply phosphorylated analog (S19D/S45D/S59D) of αB-crystallin (UniProt P02511 1-175, S19D | S45D | S59D); experiment: fluorescence polarisation
T1 sequence (looked up): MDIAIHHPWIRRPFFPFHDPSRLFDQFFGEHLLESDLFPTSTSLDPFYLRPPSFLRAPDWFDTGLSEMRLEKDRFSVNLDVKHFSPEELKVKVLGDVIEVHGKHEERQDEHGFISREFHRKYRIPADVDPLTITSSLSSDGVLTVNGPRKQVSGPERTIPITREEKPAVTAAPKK

Molecule: αB-crystallin (from UniProt P02511 1-175) (natural protein)
- Kd [1]: > 300 µM

B1: Human γD-crystallin I4F/V76D, bimane-labeled at cysteine 111 (natural protein)
chain: GKFTLYEDRGFQGRHYECSSDHPNLQPYLSRCNSARVDSGCWMLYEQPNYSGLQYFLRRGDYADHQQWMGLSDSDRSCRLIPHSGSHRIRLYEREDYRGQMIEFTEDCSCLQDRFRFNEIHSLNVLEGSWVLYELSNYRGRQYLLMPGDYRRYQDWGATNARVGSLRRVIDFS
modifications: bimane label at cysteine C111
- Kd [2]: 27 ± 6 µM
